Measurements reported in publication PMC7070470, “Thermostable Tannase from Aspergillus Niger and Its Application in the Enzymatic Extraction of Green Tea” (Molecules, 2020).

Substrate: CCCOC(=O)c1cc(O)c(O)c(O)c1
Assay: purified protein
Assay type: biochemical, Aspergillus niger
Conditions: standard assay condition

B1: rAntan1 (tannase from A. niger FJ0118, Antan1 without signal peptide) (Aspergillus niger CBS 513.88) (protein)
chain: ATPSTLAELCTDSIVKAALPPSEFIQGITIDSDSVTTEVVTNSSVSSEFYPSATINYCNVTFAYSHDGIDGDQVLLEIWLPAPTDFQNRWLSTGGGGYAINSGDQSLPGGVMYGAASGMTDGGFGGFSNNADTAMLLANGTLDYETLYMFAYKAHRELSLIGKALTRNVYGMSDSDKLYAYYQGCSEGGREGWSQVQRFGDEWDGAIIGAPAFRWSFQQTQHLYSNVVEKTLDYYPPPCELDKIVNETIAACDAMDGKVDWVVARTDLCLLDFDISTIEGKPYSCAASRGTPAQNGTVSAKGIEVAKTIINGLHDSQGRRVYFSYQPTAAFDDAETQYNSTTGQWGLDIDQLGGEYIALLVDKNGTTLDSLDGVTYDTLKDWMISGLQEYYSTLQTTWPDLTPFHEAGGKVIHFHGDADFSIPTAASIRYWESVRSIMYPNQDYNSSAEALNEWYRLYTVPGAGHCATNDAMPNGPFPQTNMAVMIDWVENGVVPTTLNATVLQGENEGQNQQLCAWPLRPLWTNNGTTMECVYNQRSIDSWHYDLDAVPMPVY
notes: mature form, predicted 20-residue signal peptide removed; secreted from Pichia pastoris SMD1168 (pPIC9K), DEAE-Sepharose purified; 1725 bp ORF, 575 residues printed
Km: 73 µM | kcat (substrate range printed as 0.05–1.0 M): 1060 s⁻¹
